The supplement of paper PMC9732359
± gives the uncertainty stated by the source.

Experiment: protein stability index of a GFP-peptide fusion (yeast GPS) (PSI 1-4); higher = more stable; sorted into four equal gates, so the index is relative within each strain
Conditions: pdr5∆
Method in brief: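 For each peptide, the protein stability index sums the read frequency in every gate after multiplying it by the gate number. Read frequencies came from plasmids that were PCR-amplified from each gate and Illumina-sequenced, with reads assigned to strains by barcodes. The gates were four equal bins of GFP/Cherry fluorescence ratio applied to mid-log yeast in leucine-free medium carrying a pooled library of tiled 17-residue yeast protein peptides fused downstream of GFP on a Cherry-expressing plasmid.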

Row | Sequence | protein stability index
1 | SAQAETEALLLEHDVEY [DIS3] | 3.22 ± 0.098
2 | SAQQNLASSFVNGFLNL [RPN1] | 2.54 ± 0.067
3 | SASLKKIQQHNTILNSS [BRR2] | 2.93 ± 0.055

Same assay, conditions: san1∆

Row | Sequence | protein stability index
4 | RESLIMLLEEQLEYKRG [MED7] | 2.42 ± 0.091
5 | RFMKGRRSKQLINLAKT [RPC82] | 2.72 ± 0.074
6 | RFTKFSDTLKEFKIEQN [YDL116W/NUP84] | 1.42 ± 0.18
7 | RGNTKIHSMNENPTPEK [SIR3] | 3.08 ± 0.056
8 | RGTIPLLERYIGNLITR [PRP8] | 1.48 ± 0.08
9 | RGYTCQFVDMVLPNTAL [FAS1] | 1.32 ± 0.089
10 | RHKNKHIQGFPTLGERL [DSN1] | 3.37 ± 0.06
11 | RHMVDDKIHARARGPMQ [RPB2] | 3.27 ± 0.16
12 | RIIGLSATLPNYEDVGR [BRR2] | 2.33 ± 0.044
13 | RILAMCVKNHGQSSSIQ [YCS4] | 2.13 ± 0.057
14 | RILKNKAEYLKNCPITQ [RPC40] | 3.02 ± 0.04
15 | RIPFSERKLKFSNRFLP [FAS1] | 1.11 ± 0.13
16 | RITNSFYSTNSQYFKFK [RPN9] | 2.42 ± 0.086
17 | RKALPKEPKKLLPNSKN [DSN1] | 2.69 ± 0.084
18 | RKAYFTAPSSERRVLLS [RPL26B] | 2.49 ± 0.066
19 | RKAYFTAPSSQRRVLLS [RPL26A] | 2.54 ± 0.054
20 | RKCCNHPYLFEGAEPGP [ISW2] | 3.11 ± 0.05
21 | RKFKSRRCDDMLYYIQN [POP4] | 2.81 ± 0.062
22 | RKGGPATAEKLPNIYPS [RPT2] | 2.81 ± 0.13
23 | RKHRNAQFAGRASIEYY [DIS3] | 2.8 ± 0.13
24 | RKILESSNIVNENDSQA [YIL149C/MLP2] | 2.89 ± 0.085
25 | RKLEISSRFKHRQEIFK [GAL11] | 3.01 ± 0.059
26 | RKLINYTKKHLSSHSST [RPN4] | 1.41 ± 0.088
27 | RKLMEMENILQRCKSNA [YIL149C/MLP2] | 2 ± 0.096

Row | Sequence | protein stability index
28 | RKQIQLLKKIIFEKELM [SRB4] | 1.86 ± 0.071
29 | RKRKCGHTNQLRPKKKL [RPL40A] | 3.017 ± 0.024
30 | RKRPVPKGATYGKPTNQ [RPL15A] | 3.58 ± 0.19
31 | RKVRTKKWKKYWQYKAG [SWP82] | 2.83 ± 0.12
32 | RKVSGPRALQPSQFGML [RET1] | 2.46 ± 0.12
33 | RLAPLIKEENDMENMAD [ARP7] | 2.88 ± 0.14
34 | RLASEPGIISITSLQDS [YMR129W/POM152] | 2.96 ± 0.083
35 | RLEFDQDRDRFFLRDTL [SNF5] | 3.06 ± 0.048
36 | RLELAGQLISLLFEDLF [RET1] | 2.67 ± 0.082
37 | RLFIKPGQKMSLFSHRK [BRN1] | 3.07 ± 0.13
38 | RLGGDDLRIRIKLDIVV [SNF5] | 1.54 ± 0.13
39 | RLHYYPKDPSNVETYEQ [BRR2] | 3.01 ± 0.24
40 | RLNTVTRVHQLMLEDAV [MCD1] | 1.69 ± 0.21
41 | RLQAANSMEYTGKITKM [CDC53] | 2.52 ± 0.094
42 | RLQGIKLLDNIQEYQLC [COR1] | 2.06 ± 0.13
43 | RLRQFNLQPISTPENVP [SMC4] | 1.61 ± 0.14
44 | RLTAKRLIEHDPVEGNL [SRP14] | 1.93 ± 0.1
45 | RMLEEAIDHLKAELEKQ [YIL149C/MLP2] | 3.32 ± 0.073
46 | RMLSFEDISKATHLPKD [RPN9] | 3.15 ± 0.096
47 | RNILHNTVPQVTNFNST [SRB5] | 1.92 ± 0.052
48 | RNKSAANNDINSLLSNF [YDL088C/ASM4] | 2.99 ± 0.091
49 | RNNVANKQPRNESFNRR [YAR002W/NUP60] | 2.31 ± 0.12
50 | RNQILVSITDAPKIHIL [YMR129W/POM152] | 1.26 ± 0.057
51 | RNRDIALFQPPNFDWDL [ROX3] | 3.17 ± 0.11

Row | Sequence | protein stability index
52 | RNTMMIQCQIDKLYIHF [RGR1] | 2.08 ± 0.069
53 | RNVLSASLDGTIRLWEC [RPN14] | 3.14 ± 0.042
54 | RPDLIKEDHPLEFYKDK [SIR3] | 3.21 ± 0.039
55 | RPFDSFGKLLQAYQFLN [ITC1] | 1.48 ± 0.077
56 | RPSFQNNRISNANEISA [SWP82] | 1.99 ± 0.082
57 | RQFVSNVRSVIRSSRSR [RPP1] | 2.91 ± 0.064
58 | RQLTSLGSKKELGISLE [SNU114] | 3.14 ± 0.097
59 | RQQYYSGVQVGGVGSMG [SNF6] | 2.19 ± 0.094
60 | RRADVKTATVKINKKLN [RPL38] | 2.17 ± 0.086
61 | RRFKNGFQTGSASKASA [RPL37A] | 3.06 ± 0.067
62 | RRFYKNWYKSKKKAFTK [RPL3] | 1.6 ± 0.2
63 | RRIIQNAQQTFHIDHTK [RPO21] | 3 ± 0.062
64 | RRIPKRMRNRALREMRK [POP1] | 3.34 ± 0.078
65 | RRLDALVEKVYARFKND [ITC1] | 2.69 ± 0.078
66 | RRRDFGAPANKRPRRGL [SMD1] | 3.38 ± 0.07
67 | RRRDGVFLYFEDNAGVI [RPL23A] | 2.37 ± 0.11
68 | RRRLLGPAAAKPMAFSN [MTR3] | 3.23 ± 0.057
69 | RRTNTPIGRDGKLAKPR [RPB2] | 2.76 ± 0.084
70 | RRYDRKQSGFGGQTKPV [RPL42A] | 2.88 ± 0.056
71 | RSEDPAGLGKTNELWAR [YGR119C/NUP57] | 3.25 ± 0.075
72 | RSLATAVATPKAEVTQL [COR1] | 2.98 ± 0.092
73 | RSQDQENPAFLPGTNNN [SEC65] | 2.19 ± 0.063
74 | RSRNGGATKIVREHYLR [DIS3] | 3.36 ± 0.081
75 | RSWNEPSKSQTNFKEEI [YML103C/NUP188] | 3.17 ± 0.12

Row | Sequence | protein stability index
76 | RSWTLTSEMKVLSIPPA [YGL100W/SEH1] | 2.37 ± 0.064
77 | RTKSQVIEEDYDDEQNT [IRR1] | 2.38 ± 0.099
78 | RTSATREDTPLSQNEST [ISW2] | 2.93 ± 0.062
79 | RTWYESFCGFLLYYIPS [YJR042W/NUP85] | 1.58 ± 0.11
80 | RVGVKLKFNSTEYRGTL [SMX3] | 2.87 ± 0.09
81 | RVKDIHLRKLLDGELDF [RET1] | 3.03 ± 0.066
82 | RVKVHFDQAGKKVSRRN [RPL13A] | 3.26 ± 0.12
83 | RVNNPNVSLIKIEGVAT [RPL33A] | 2.38 ± 0.077
84 | RVVTVDGKLIDISGTMS [SMC4] | 3.35 ± 0.06
85 | RYLAVTLQDIGFYQIKK [YMR129W/POM152] | 2.73 ± 0.068
86 | RYLTLLSNEFTATNSKG [ECM29] | 2.61 ± 0.088
87 | RYNRAVPDSKIRIYDLG [RPL10] | 1.89 ± 0.19
88 | RYVNLLGVTYSSPTLAT [PRE4] | 1.47 ± 0.17
89 | SAASKKKKNKNKGKKKR [SRP21] | 3.11 ± 0.056
90 | SAEDQLYAITFRKGLGN [QCR2] | 2.96 ± 0.2
91 | SAEEQLRKIDMLQKKLV [SRB7] | 1.88 ± 0.097
92 | SAFACKTDEVIILGTNL [BRR2] | 2.94 ± 0.04
93 | SAGLFGSKPAGGTSLFG [YGL172W/NUP49] | 2.27 ± 0.098
94 | SAIDEEIEELIDSINGP [SMC3] | 3.08 ± 0.17
95 | SAIRQVFERFKTKILEV [IRR1] | 1.71 ± 0.07
96 | SANERLFGNRPSMMAPL [YML031W/NDC1] | 2.62 ± 0.12
97 | SAPIYVDIEYTRGRNII [RET1] | 2.88 ± 0.064
98 | SAQAETEALLLEHDVEY [DIS3] | 3.3 ± 0.095
99 | SAQQNLASSFVNGFLNL [RPN1] | 3.1 ± 0.059
